Results as given in patent publication US5455329A, “DNA sequences coding for PTH variants, PTH variants, expression vector, bacterial host, use and therapeutic composition” (Gesellschaft fur Biotechnologische Forschung mbH (GBF), priority 1989, dated 1995).
Numbering of substitutions follows the chain as printed. In names and notes the source's numbering stands.

B1: Q29N: hPTH variant Gln(29) -> Asn(29), lengthened N-terminally by one proline (protein, UniProt P01270 32-115, looked up, variant Q29N)
Parathyroid hormone: SVSEIQLMHNLGKHLNSMERVEWLRKKLNDVHNFVALGAPLAPRDAGSQRPRKKEDNVLVESHEKSLGEADKADVNVLTKAKSQ
modifications: Parathyroid hormone N-terminal proline extension
notes: hPTH variant Gln(29) -> Asn(29), lengthened N-terminally by one proline
B2: K13P: hPTH variant Lys(13) -> Pro(13), lengthened N-terminally by one proline (protein, UniProt P01270 32-115, looked up, variant K13P)
Parathyroid hormone: B1 Parathyroid hormone with K13P, N29Q
modifications: Parathyroid hormone N-terminal proline extension
notes: hPTH variant Lys(13) -> Pro(13), lengthened N-terminally by one proline
B3: L11K: hPTH variant Leu(11) -> Lys(11), lengthened N-terminally by one proline (protein, UniProt P01270 32-115, looked up, variant L11K)
Parathyroid hormone: B1 Parathyroid hormone with L11K, N29Q
modifications: Parathyroid hormone N-terminal proline extension
notes: hPTH variant Leu(11) -> Lys(11), lengthened N-terminally by one proline
B4: H32K: hPTH variant His(32) -> Lys(32), lengthened N-terminally by one proline (protein, UniProt P01270 32-115, looked up, variant H32K)
Parathyroid hormone: B1 Parathyroid hormone with N29Q, H32K
modifications: Parathyroid hormone N-terminal proline extension
notes: hPTH variant His(32) -> Lys(32), lengthened N-terminally by one proline
B5: Q29A: hPTH variant Gln(29) -> Ala(29), lengthened N-terminally by one proline (protein, UniProt P01270 32-115, looked up, variant Q29A)
Parathyroid hormone: B1 Parathyroid hormone with N29A
modifications: Parathyroid hormone N-terminal proline extension
notes: hPTH variant Gln(29) -> Ala(29), lengthened N-terminally by one proline
B6: R20E: hPTH variant Arg(20) -> Glu(20), lengthened N-terminally by one proline (protein, UniProt P01270 32-115, looked up, variant R20E)
Parathyroid hormone: B1 Parathyroid hormone with R20E, N29Q
modifications: Parathyroid hormone N-terminal proline extension
notes: hPTH variant Arg(20) -> Glu(20), lengthened N-terminally by one proline
B7: K27L: hPTH variant Lys(27) -> Leu(27), lengthened N-terminally by one proline (protein, UniProt P01270 32-115, looked up, variant K27L)
Parathyroid hormone: B1 Parathyroid hormone with K27L, N29Q
modifications: Parathyroid hormone N-terminal proline extension
notes: hPTH variant Lys(27) -> Leu(27), lengthened N-terminally by one proline
B8: H32L: hPTH variant His(32) -> Leu(32), lengthened N-terminally by one proline (protein, UniProt P01270 32-115, looked up, variant H32L)
Parathyroid hormone: B1 Parathyroid hormone with N29Q, H32L
modifications: Parathyroid hormone N-terminal proline extension
notes: hPTH variant His(32) -> Leu(32), lengthened N-terminally by one proline
B9: H32R: hPTH variant His(32) -> Arg(32), lengthened N-terminally by one proline (protein, UniProt P01270 32-115, looked up, variant H32R)
Parathyroid hormone: B1 Parathyroid hormone with N29Q, H32R
modifications: Parathyroid hormone N-terminal proline extension
notes: hPTH variant His(32) -> Arg(32), lengthened N-terminally by one proline
B10: E4R, R20E: hPTH variant Glu(4) Arg(20) -> Arg(4), Glu(20), lengthened N-terminally by one proline (protein, UniProt P01270 32-115, looked up, variant E4R R20E)
Parathyroid hormone: B1 Parathyroid hormone with E4R, R20E, N29Q
modifications: Parathyroid hormone N-terminal proline extension
notes: hPTH variant Glu(4) Arg(20) -> Arg(4), Glu(20), lengthened N-terminally by one proline
B11: E4R: hPTH variant Glu(4) -> Arg(4), lengthened N-terminally by one proline (protein, UniProt P01270 32-115, looked up, variant E4R)
Parathyroid hormone: B1 Parathyroid hormone with E4R, N29Q
modifications: Parathyroid hormone N-terminal proline extension
notes: hPTH variant Glu(4) -> Arg(4), lengthened N-terminally by one proline
B12: K27R: hPTH variant Lys(27) -> Arg(27), lengthened N-terminally by one proline (protein, UniProt P01270 32-115, looked up, variant K27R)
Parathyroid hormone: B1 Parathyroid hormone with K27R, N29Q
modifications: Parathyroid hormone N-terminal proline extension
notes: hPTH variant Lys(27) -> Arg(27), lengthened N-terminally by one proline

Key:
[1] = tested on: adenylate cyclase in isolated membranes of porcine adrenal cortices; test: Stimulation of adenylate cyclase in isolated membranes, in vitro test according to Mohr and Hesch; type: biochemical; conditions: for Adenylate cyclase (%) relative activity: relative to recombinant hPTH (=100), stimulation beyond the base level; for Effect on adenylate cyclase stimulation (in words, group classification): qualitative, versus wild type PTH
Method: The PTH variants so obtained were tested for their ability to stimulate adenylate cyclase in isolated membranes of porcine adrenal cortices in an in vitro test according to Mohr and Hesch (Biochem. J., 188 (1980) 649-656) .

[2] = tested on: embryonal chicken chondrocytes; test: Increase of DNA synthesis of embryonal chicken chondrocytes; type: cell-based; conditions: for DNA synthesis (%) relative activity: relative to recombinant hPTH (=100), stimulation beyond the base level, chondrocytes; for Effect on stimulation of DNA synthesis (in words, group classification): qualitative, versus wild type PTH
Method: They were also tested for their ability, according to DE-A-37 25 319.0 and DE-A-37 25 320.4, to increase the DNA synthesis of embryonal chicken chondrocytes.

Molecule | Adenylate cyclase (%) relative activity [1] | DNA synthesis (%) relative activity [2] | Effect on adenylate cyclase stimulation (in words, group classification) [1] | Effect on stimulation of DNA synthesis (in words, group classification) [2]
rec-hPTH: recombinant human parathyroid hormone wild type, lengthened N-terminally by one proline residue; reference = 100 % [reference compound] | 100% | 100% |  | 
B1 | 99% | 95% | maintain the stimulation | maintain the stimulation
B2 | 6% | 88% | significant reduction in adenylate cyclase stimulation | increase in DNA synthesis
B3 | 89% | 21% | maintain the stimulation of adenylate cyclase | reduce that of DNA synthesis
B4 | 85% | 22% | substantial retention of the effect on adenylate cyclase | significant reduction in the stimulation of DNA synthesis
B5 | 104% | 8% | substantial retention of the effect on adenylate cyclase | significant reduction in the stimulation of DNA synthesis
B6 | 0% | 0% | significant reduction in adenylate cyclase stimulation | unaffected DNA synthesis
B7 | 35% | 70% | significant reduction in adenylate cyclase stimulation | increase in DNA synthesis
B8 | 93% | 11% | substantial retention of the effect on adenylate cyclase | significant reduction in the stimulation of DNA synthesis
B9 | 87% | 36% | substantial retention of the effect on adenylate cyclase | significant reduction in the stimulation of DNA synthesis
B10 | 20% | 58% | significant reduction in adenylate cyclase stimulation | increase in DNA synthesis
B11 | 47% | 88% | significant reduction in adenylate cyclase stimulation | increase in DNA synthesis
B12 | 90% | 81% | maintain the stimulation | maintain the stimulation
